Assay results: US20210230238A1 (DEUTSCHES KREBSFORSCHUNGSZENTRUM STIFTUNG DES FFENTLICHEN …, published 2021)

Columns and labels:
Assay in all cases: SPR, Dectin-1 immobilized, 1:1 model
[1] = biological target: T1, murine annexin A13 (murine, UniProt Q99JG3 2-317)
T1 construct: Recombinant protein; also called mAnxA13
T1 sequence: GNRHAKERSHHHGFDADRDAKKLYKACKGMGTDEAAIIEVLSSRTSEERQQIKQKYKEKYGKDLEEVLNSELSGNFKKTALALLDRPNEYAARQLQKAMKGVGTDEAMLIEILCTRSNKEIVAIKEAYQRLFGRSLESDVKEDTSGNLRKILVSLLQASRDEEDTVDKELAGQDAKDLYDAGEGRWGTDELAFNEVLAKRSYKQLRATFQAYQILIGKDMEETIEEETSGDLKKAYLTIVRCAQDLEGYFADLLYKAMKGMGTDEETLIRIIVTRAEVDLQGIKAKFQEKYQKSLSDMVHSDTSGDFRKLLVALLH

[2] = biological target: T2, murine annexin A1 core domain (murine, UniProt P10107 41-344)
T2 construct: Recombinant core domain; also called mAnxA1 core; core annexin A1 domain
T2 sequence: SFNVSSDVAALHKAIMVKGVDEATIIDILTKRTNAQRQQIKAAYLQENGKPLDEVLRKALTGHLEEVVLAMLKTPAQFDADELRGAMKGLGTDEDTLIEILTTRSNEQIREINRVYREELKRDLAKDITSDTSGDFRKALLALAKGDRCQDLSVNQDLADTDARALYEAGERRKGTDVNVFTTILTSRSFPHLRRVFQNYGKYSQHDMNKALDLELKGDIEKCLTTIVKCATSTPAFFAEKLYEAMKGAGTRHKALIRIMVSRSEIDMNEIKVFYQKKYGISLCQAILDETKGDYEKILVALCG

[3] = biological target: T3, murine annexin A1 (murine, UniProt P10107 2-346)
T3 construct: Recombinant protein; also called mAnxA1
T3 sequence: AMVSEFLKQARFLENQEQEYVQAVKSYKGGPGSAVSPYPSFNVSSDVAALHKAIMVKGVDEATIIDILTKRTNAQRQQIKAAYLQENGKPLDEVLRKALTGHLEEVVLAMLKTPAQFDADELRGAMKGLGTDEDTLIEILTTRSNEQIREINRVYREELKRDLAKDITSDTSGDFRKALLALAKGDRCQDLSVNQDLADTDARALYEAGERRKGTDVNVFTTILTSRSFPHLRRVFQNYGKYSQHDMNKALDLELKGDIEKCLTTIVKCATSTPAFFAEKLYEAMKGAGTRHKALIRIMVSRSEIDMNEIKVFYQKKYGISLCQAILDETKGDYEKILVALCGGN

[4] = biological target: T4, murine annexin A5 (murine, UniProt P48036 2-319)
T4 construct: Recombinant protein; also called mAnxA5
T4 sequence: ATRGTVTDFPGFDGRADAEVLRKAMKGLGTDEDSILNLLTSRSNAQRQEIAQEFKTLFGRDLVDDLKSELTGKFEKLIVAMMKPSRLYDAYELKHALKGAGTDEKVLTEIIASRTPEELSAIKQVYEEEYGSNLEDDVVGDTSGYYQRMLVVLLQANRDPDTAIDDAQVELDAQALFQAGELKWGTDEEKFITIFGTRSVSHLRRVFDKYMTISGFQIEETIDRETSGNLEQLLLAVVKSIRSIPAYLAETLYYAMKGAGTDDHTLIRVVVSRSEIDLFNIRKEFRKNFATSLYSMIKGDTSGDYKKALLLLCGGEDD

Measured: Kd

B1: Dectin-1 (receptor)
chain: GHNSGRNPEEKDNFLSRNKENHKPTESSLDEKVAPSKASQTTGGFSQPCLPNWIMHGKSCYLFSFSGNSWYGSKRHCSQLGAHLLKIDNSKEFEFIESQTSSHRINAFWIGLSRNQSEGPWFWEDGSAFFPNSFQVRNTAPQESLLHNCVWIHGSEVYNQICNTSSYSICEKEL
~100 nM: [1] | [2] | [3] | [4]
